Tm data for 47 substances are collected here from the array DNA melting data of Ke et al..

Usually Tm stands for the temperature at the midpoint of the melting transition.

The nature of the data set: melting temperature; melt of duplexes. The conditions noted are these: sodium 0.0675 M; strand 1 µM.
On to “CGACGTGCGTAATGTGCTG+CAGCACATCGAGCACGTCG ((((((((...((((((((+))))))))...))))))))”, for which the Tm stood at 53.1 °C. On to “CGACGTGCTTGATGTGCTG+CAGCACATGAGGCACGTCG ((((((((.(.((((((((+)))))))).).))))))))”, for which the midpoint of thermal melting (Tm) came out at 51.6 °C. “CGACGTGCTTGATGTGCTG+CAGCACATTACGCACGTCG ((((((((.(.((((((((+)))))))).).))))))))”: the melting temperature (Tm) worked out at 50.1 °C.

In the case of “CGACGTGCACGATGTGCTG+CAGCACATTTTGCACGTCG (((((((((..((((((((+))))))))..)))))))))”, the Tm was 48.5 °C.

In the case of “CGACGTGCATCATGTGCTG+CAGCACATAACGCACGTCG ((((((((.(.((((((((+)))))))).).))))))))”, the Tm is 48.3 °C. The figure for “CGACGTGCTGTATGTGCTG+CAGCACATCGTGCACGTCG ((((((((...((((((((+))))))))...))))))))” is 46.4 °C; for “CGACGTGCGACATGTGCTG+CAGCACATCGCGCACGTCG (((((((((..((((((((+))))))))..)))))))))” it is 54.1 °C; for “CGACGTGCCATATGTGCTG+CAGCACATGTTGCACGTCG ((((((((.(.((((((((+)))))))).).))))))))” it is 50.8 °C.

Consider “CGACGTGCGGCATGTGCTG+CAGCACATGTCGCACGTCG (((((((((.(((((((((+))))))))).)))))))))”, for which the Tm stood at 63.5 °C. In the case of “CGACGTGCGAGATGTGCTG+CAGCACATACGGCACGTCG ((((((((...((((((((+))))))))...))))))))”, the Tm is 50.1 °C. For “CGACGTGCCCCATGTGCTG+CAGCACATCTAGCACGTCG ((((((((...((((((((+))))))))...))))))))” the value was 47.3 °C; for “CGACGTGCTCTATGTGCTG+CAGCACATCCTGCACGTCG ((((((((...((((((((+))))))))...))))))))”, 47.8 °C. In the case of “CGACGTGCCGGATGTGCTG+CAGCACATCATGCACGTCG ((((((((..(((((((((+)))))))))..))))))))”, the Tm amounted to 54.8 °C. For “CGACGTGCGCTATGTGCTG+CAGCACATGCGGCACGTCG ((((((((...((((((((+))))))))...))))))))” the value was 54 °C. As for “CGACGTGCAAAATGTGCTG+CAGCACATTCCGCACGTCG ((((((((..(((((((((+)))))))))..))))))))”, the melting temperature (Tm) turned out to be 50.6 °C. Take “CGACGTGCCCGATGTGCTG+CAGCACATCCAGCACGTCG ((((((((..(((((((((+)))))))))..))))))))”: the Tm was found to be 52.7 °C. Take “CGACGTGCGAGATGTGCTG+CAGCACATCTAGCACGTCG ((((((((.((((((((((+)))))))))).))))))))”: the Tm is 59.7 °C. For “CGACGTGCGCGATGTGCTG+CAGCACATTATGCACGTCG ((((((((...((((((((+))))))))...))))))))” the value was 50 °C; for “CGACGTGCCCAATGTGCTG+CAGCACATGGAGCACGTCG ((((((((.(.((((((((+)))))))).).))))))))”, 55.5 °C; for “CGACGTGCACTATGTGCTG+CAGCACATTAGGCACGTCG ((((((((...((((((((+))))))))...))))))))”, 46.4 °C.

As to “CGACGTGCGCTATGTGCTG+CAGCACATCAAGCACGTCG ((((((((...((((((((+))))))))...))))))))”, the Tm came to 51.4 °C. On to “CGACGTGCCACATGTGCTG+CAGCACATGTGGCACGTCG (((((((((((((((((((+)))))))))))))))))))”, for which the Tm amounted to 66.4 °C. As to “CGACGTGCGGTATGTGCTG+CAGCACATGCGGCACGTCG ((((((((.(.((((((((+)))))))).).))))))))”, the Tm was 55.1 °C. For “CGACGTGCAGCATGTGCTG+CAGCACATAGTGCACGTCG (((((((((..((((((((+))))))))..)))))))))” the value was 44.4 °C. For “CGACGTGCGAAATGTGCTG+CAGCACATGGTGCACGTCG ((((((((...((((((((+))))))))...))))))))”, the midpoint of thermal melting (Tm) worked out at 50.6 °C. Turning to “CGACGTGCAAGATGTGCTG+CAGCACATCGAGCACGTCG ((((((((..(((((((((+)))))))))..))))))))”, the Tm came to 57.9 °C. In the case of “CGACGTGCTAGATGTGCTG+CAGCACATTAGGCACGTCG ((((((((...((((((((+))))))))...))))))))”, the Tm was determined as 52.2 °C. The figure for “CGACGTGCGCTATGTGCTG+CAGCACATACGGCACGTCG ((((((((..(((((((((+)))))))))..))))))))” is 50.6 °C. For “CGACGTGCTTGATGTGCTG+CAGCACATTAAGCACGTCG ((((((((((.((((((((+)))))))).))))))))))” the value was 57.2 °C; for “CGACGTGCACCATGTGCTG+CAGCACATGAAGCACGTCG ((((((((..(((((((((+)))))))))..))))))))”, 51 °C. With “CGACGTGCAAAATGTGCTG+CAGCACATGGAGCACGTCG ((((((((...((((((((+))))))))...))))))))”, the Tm turned out to be 53.9 °C. Take “CGACGTGCTGAATGTGCTG+CAGCACATATAGCACGTCG (((((((((..((((((((+))))))))..)))))))))”: the midpoint of thermal melting (Tm) is 53.7 °C.

Regarding “CGACGTGCTGGATGTGCTG+CAGCACATGAGGCACGTCG ((((((((...((((((((+))))))))...))))))))”, the Tm is 54 °C.

In the case of “CGACGTGCGCAATGTGCTG+CAGCACATCTTGCACGTCG ((((((((...((((((((+))))))))...))))))))”, the Tm was 48.7 °C. For “CGACGTGCGTTATGTGCTG+CAGCACATGGTGCACGTCG ((((((((...((((((((+))))))))...))))))))” the value was 48.3 °C; for “CGACGTGCATAATGTGCTG+CAGCACATCGTGCACGTCG (((((((((..((((((((+))))))))..)))))))))”, 47.6 °C. In the case of “CGACGTGCATAATGTGCTG+CAGCACATGGCGCACGTCG ((((((((...((((((((+))))))))...))))))))”, the midpoint of thermal melting (Tm) was determined as 53 °C.

Turning to “CGACGTGCACGATGTGCTG+CAGCACATGTTGCACGTCG (((((((((..((((((((+))))))))..)))))))))”, the Tm is 49.9 °C.

In the case of “CGACGTGCCTGATGTGCTG+CAGCACATTGAGCACGTCG ((((((((...((((((((+))))))))...))))))))”, the melting temperature (Tm) was 51 °C.

With “CGACGTGCGGTATGTGCTG+CAGCACATGCCGCACGTCG ((((((((((.((((((((+)))))))).))))))))))”, the melting temperature (Tm) turned out to be 63.4 °C. In the case of “CGACGTGCAGCATGTGCTG+CAGCACATCACGCACGTCG ((((((((...((((((((+))))))))...))))))))”, the Tm came out at 46.7 °C. The figure for “CGACGTGCTATATGTGCTG+CAGCACATCACGCACGTCG ((((((((...((((((((+))))))))...))))))))” is 47.9 °C; for “CGACGTGCGACATGTGCTG+CAGCACATCTAGCACGTCG ((((((((.(.((((((((+)))))))).).))))))))” it is 51.5 °C; for “CGACGTGCTAAATGTGCTG+CAGCACATGGGGCACGTCG ((((((((...((((((((+))))))))...))))))))” it is 52.5 °C.

As to “CGACGTGCGGGATGTGCTG+CAGCACATGAAGCACGTCG ((((((((...((((((((+))))))))...))))))))”, the Tm is 53.7 °C. For “CGACGTGCCCGATGTGCTG+CAGCACATGTCGCACGTCG ((((((((...((((((((+))))))))...))))))))” the value was 48.4 °C; for “CGACGTGCCGAATGTGCTG+CAGCACATAGGGCACGTCG (((((((((..((((((((+))))))))..)))))))))”, 54.4 °C.
